Results: the supplement of paper PMC7877785
± gives the uncertainty stated by the source.

Experiment: self-splicing fitness, log relative to wild type (ln ratio); higher = more splicing; Tetrahymena group I intron in knt gene, E. coli kanamycin selection, DiMSum; sequences stand for … in CUCUCU…GGAGGGAAAAGUUAUCAGGCAUGCACCUGGUAGCUAGUCUUUAAACCAAUAGAUUGCAUCGGUUUAAAAGGCAAGACCGUCAAAUUGCGGGAAAGGGGUCAACAGCCGUUCAGUACCAAGUCUCAGGGGAAACUUUGAGAUGGCCUUGCAAAGGGUAUGGUAAUAAGCUGACGGACAUGGUCCUAACCACGCAGCCAAGUCCUAAGUCAACAGAUCUUCUGUUGAUAUGGAUGCAGUUCACAGACUAAAUGUCGGUCGGGGAAGAUGUAUUCUUCUCAUAAGAUAUAGUCGGACCUCUCCUUAAUGGGAGCUAGCGGAUGAAGUGAUGCAACACUGGAGCCGCUGGGAACUAAUUUGUAUGCGAAAGUAUAUUGAUUAGUUUUGGAGUACUCGUGGUCG
Method in brief: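 DiMSum derived fitness as the error-weighted combination of fold changes across replicates, kanamycin versus no kanamycin, normalised to wild type. E. coli BL21(DE3) held the library, which randomised all eight P1ex-region intron nucleotides within the knt kanamycin-resistance gene on pET-22b(+). Six replicate transformations grew overnight at 37°C or 30°C on LB agar with or without 25 μg/mL kanamycin, also containing 100 μg/mL carbenicillin, 50 μM IPTG and 0.2% rhamnose, and pooled colonies were amplicon-sequenced on an Illumina HiSeq 2500.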

Row | Sequence | self-splicing fitness (ln) (30 °C) | self-splicing fitness (ln) (37 °C)
1 | AUAUAGCAAUAUUACGCACA | -0.73 ± 0.19 | -0.28 ± 0.23
2 | UAUGAGCAAUAUUACGACUA | -0.118 ± 0.11 | 0.0355 ± 0.12
3 | UGGGAGCAAUAUUACGUUGG | -3.45 ± 0.22 | -2.85 ± 0.26
4 | GCACAGCAAUAUUACGGGCU | -3.81 ± 0.24 | -1.77 ± 0.12
5 | AGGCAGCAAUAUUACGUUUC | -2.17 ± 0.095 | -1.75 ± 0.15
6 | CUAUAGCAAUAUUACGCCAA | – | -1.68 ± 0.49
7 | CAAUAGCAAUAUUACGUCCG | -0.215 ± 0.1 | -0.267 ± 0.13
8 | CCCAAGCAAUAUUACGACGG | -3.7 ± 0.21 | -1.61 ± 0.16
9 | CGUCAGCAAUAUUACGCGGU | -2.93 ± 0.16 | -2.27 ± 0.19
10 | GACUAGCAAUAUUACGGAGU | -4.2 ± 0.25 | -2.87 ± 0.21
11 | UUCCAGCAAUAUUACGACUU | -1.5 ± 0.18 | -0.653 ± 0.2
12 | GCCGAGCAAUAUUACGGCUA | -2.04 ± 0.35 | -1.35 ± 0.27
13 | GUGCAGCAAUAUUACGCACC | – | -1.79 ± 0.35
14 | GUCGAGCAAUAUUACGGAAU | -2.48 ± 0.16 | -1.12 ± 0.14
15 | AACCAGCAAUAUUACGGUAG | -1.99 ± 0.058 | -1.02 ± 0.066
16 | CUUAAGCAAUAUUACGGGUG | -0.609 ± 0.049 | 0.489 ± 0.07
17 | AUUAAGCAAUAUUACGCGCC | -1.18 ± 0.15 | -0.862 ± 0.2
18 | UGCAAGCAAUAUUACGUCGG | -2.03 ± 0.086 | -0.943 ± 0.1
19 | AACAAGCAAUAUUACGCAAA | -2.08 ± 0.17 | 0.267 ± 0.13
20 | AAAAAGCAAUAUUACGGCCA | -0.43 ± 0.11 | -0.0922 ± 0.15
21 | CGGCAGCAAUAUUACGGGUG | -0.564 ± 0.046 | -0.449 ± 0.06
22 | UCACAGCAAUAUUACGCACU | -2.56 ± 0.17 | -2.8 ± 0.24
23 | AUAUAGCAAUAUUACGUCUC | -3.22 ± 0.36 | -1.51 ± 0.28
24 | AAGUAGCAAUAUUACGUCAU | -2.29 ± 0.13 | -0.997 ± 0.12
25 | CGCGAGCAAUAUUACGGAGC | – | -1.99 ± 0.26
26 | UCCGAGCAAUAUUACGAUCU | -3.46 ± 0.35 | -2.61 ± 0.39
27 | GUCUAGCAAUAUUACGCGGC | – | -2.87 ± 0.4

Row | Sequence | self-splicing fitness (ln) (30 °C) | self-splicing fitness (ln) (37 °C)
28 | GCCUAGCAAUAUUACGCGUA | -1.89 ± 0.13 | -0.683 ± 0.12
29 | GGCCAGCAAUAUUACGCCGC | -4.33 ± 0.39 | –
30 | CCCAAGCAAUAUUACGCUCA | -3.73 ± 0.27 | -3.23 ± 0.25
31 | AAUAAGCAAUAUUACGAGAC | -3.14 ± 0.47 | -1.18 ± 0.23
32 | AACUAGCAAUAUUACGGGGC | -3.61 ± 0.23 | -3.1 ± 0.35
33 | UGUAAGCAAUAUUACGGUGG | -3.54 ± 0.19 | -1.27 ± 0.13
34 | UGGAAGCAAUAUUACGUGAC | -2.76 ± 0.34 | -1.75 ± 0.4
35 | UCUUAGCAAUAUUACGAUUG | -2.74 ± 0.22 | -1.23 ± 0.18
36 | CGACAGCAAUAUUACGCAGU | -3.75 ± 0.22 | -2.05 ± 0.23
37 | UUGUAGCAAUAUUACGCGGA | -1.43 ± 0.13 | -0.3 ± 0.11
38 | UAUUAGCAAUAUUACGAGGC | – | -0.205 ± 0.23
39 | CACUAGCAAUAUUACGGCUA | -3.46 ± 0.47 | -2.1 ± 0.32
40 | CCUGAGCAAUAUUACGAACG | -2.81 ± 0.26 | -1.48 ± 0.27
41 | CCUUAGCAAUAUUACGGCAU | -3.41 ± 0.19 | -2.88 ± 0.32
42 | GGGAAGCAAUAUUACGUAUU | -1.87 ± 0.13 | -1.58 ± 0.15
43 | GUUGAGCAAUAUUACGGUGU | -2.22 ± 0.2 | -1.1 ± 0.33
44 | GGUUAGCAAUAUUACGCAUC | -0.527 ± 0.33 | -0.989 ± 0.38
45 | CUCAAGCAAUAUUACGAAGC | -3.4 ± 0.28 | -2.56 ± 0.35
46 | CCACAGCAAUAUUACGCAUA | -3.46 ± 0.18 | -2.42 ± 0.19
47 | GUGGAGCAAUAUUACGUCAG | – | -2.43 ± 0.46
48 | GUAUAGCAAUAUUACGUCCC | -1.75 ± 0.12 | -0.594 ± 0.16
49 | GUCAAGCAAUAUUACGGGAA | -3.1 ± 0.19 | -0.398 ± 0.12
50 | UUACAGCAAUAUUACGUACU | -0.865 ± 0.1 | -0.831 ± 0.096
51 | ACCCAGCAAUAUUACGCAAG | -2.81 ± 0.11 | -1.14 ± 0.11
52 | GACUAGCAAUAUUACGCGCG | 0.097 ± 0.11 | -0.349 ± 0.11
53 | GCGAAGCAAUAUUACGAACC | -1.67 ± 0.13 | -1.06 ± 0.15
54 | UGGGAGCAAUAUUACGCUCC | – | -2.7 ± 0.44

Row | Sequence | self-splicing fitness (ln) (30 °C) | self-splicing fitness (ln) (37 °C)
55 | GUCAAGCAAUAUUACGCAGA | -3.23 ± 0.24 | -2.79 ± 0.3
56 | CACCAGCAAUAUUACGACAC | -3.07 ± 0.27 | -1.36 ± 0.22
57 | CACUAGCAAUAUUACGCGUC | -1.84 ± 0.1 | -2.75 ± 0.21
58 | GUUCAGCAAUAUUACGCGAG | -0.511 ± 0.11 | -0.381 ± 0.11
59 | UUGAAGCAAUAUUACGCAGG | -1.15 ± 0.092 | -0.283 ± 0.098
60 | AGUUAGCAAUAUUACGGCUC | -3.53 ± 0.26 | -2.46 ± 0.34
61 | GGGUAGCAAUAUUACGAUCG | -0.211 ± 0.16 | -0.869 ± 0.22
62 | GCUCAGCAAUAUUACGACAG | -3.53 ± 0.21 | -2.28 ± 0.22
63 | AAUGAGCAAUAUUACGACCC | -3.25 ± 0.32 | 0.0637 ± 0.21
64 | CGACAGCAAUAUUACGAUAU | -2.96 ± 0.14 | -2.84 ± 0.12
65 | CUGAAGCAAUAUUACGCGCC | -3.07 ± 0.31 | –
66 | GUACAGCAAUAUUACGUCUG | -2.04 ± 0.23 | -2.09 ± 0.18
67 | ACAAAGCAAUAUUACGAGAG | -2.93 ± 0.16 | -1.1 ± 0.1
68 | CGGAAGCAAUAUUACGCAGC | -3.56 ± 0.37 | -1.49 ± 0.27
69 | UGUCAGCAAUAUUACGAUGU | -1.36 ± 0.073 | -0.317 ± 0.093
70 | GAGCAGCAAUAUUACGAUGC | -1.47 ± 0.092 | -0.514 ± 0.11
71 | AUCUAGCAAUAUUACGUUGA | -2.53 ± 0.11 | -1.7 ± 0.11
72 | AAUCAGCAAUAUUACGGCCA | -0.515 ± 0.11 | -0.146 ± 0.12
73 | CACUAGCAAUAUUACGCCUA | -3.31 ± 0.19 | -2.36 ± 0.16
74 | AGCAAGCAAUAUUACGUCCC | -0.545 ± 0.1 | -0.16 ± 0.13
75 | ACAUAGCAAUAUUACGUGGU | -3.44 ± 0.16 | -3.3 ± 0.24
76 | UGAUAGCAAUAUUACGCUAA | -1.82 ± 0.2 | -0.0947 ± 0.25
77 | UGGUAGCAAUAUUACGAGUC | – | -2.29 ± 0.32
78 | CCAGAGCAAUAUUACGAUUG | -1.42 ± 0.11 | -0.92 ± 0.14
79 | AGGCAGCAAUAUUACGCCUG | -1.78 ± 0.14 | -0.748 ± 0.14
